Laboratory results: US20120114682A1 (GEORGIA TECH RESEARCH, published 2012)
One block for each molecule: values may come before it.

Legend:
[1] = molecular target: Fibrin matrix (clot) (human) (UniProt P02671); test: confocal colocalisation, perfused fibrin clot, 30 min
[2] = molecular target: Fibrin matrix (clot) (human) (UniProt P02671); test: confocal colocalisation, perfused fibrin clot, 20 min
[3] = molecular target: Fibrin matrix (clot) (human) (UniProt P02671); test: confocal colocalisation, perfused fibrin clot, 0 min
[4] = molecular target: Fibrin matrix (clot) (human) (UniProt P02671); test: confocal colocalisation, perfused fibrin clot, 10 min
[5] = molecular target: T1, Fibrinogen fragment D (human, UniProt P02671 130-216; P02675 164-491; P02679 114-432, limits assumed); test: SPR (Biacore 2000), fragment D immobilised, equilibrium response fit to a single-site model
T1 construct: domain: Fragment D (or D-domain); Made by plasmin digestion of human fibrinogen and purified on GPRPAA beads; holds the C-terminal polymerization pockets without the N-terminal knobs; immobilised by amine coupling on the SPR chip; also called D-domain
T1 sequence (looked up) 1: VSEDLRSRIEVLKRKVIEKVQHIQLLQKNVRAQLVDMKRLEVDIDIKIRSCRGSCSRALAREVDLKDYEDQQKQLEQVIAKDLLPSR
T1 sequence (looked up) 2: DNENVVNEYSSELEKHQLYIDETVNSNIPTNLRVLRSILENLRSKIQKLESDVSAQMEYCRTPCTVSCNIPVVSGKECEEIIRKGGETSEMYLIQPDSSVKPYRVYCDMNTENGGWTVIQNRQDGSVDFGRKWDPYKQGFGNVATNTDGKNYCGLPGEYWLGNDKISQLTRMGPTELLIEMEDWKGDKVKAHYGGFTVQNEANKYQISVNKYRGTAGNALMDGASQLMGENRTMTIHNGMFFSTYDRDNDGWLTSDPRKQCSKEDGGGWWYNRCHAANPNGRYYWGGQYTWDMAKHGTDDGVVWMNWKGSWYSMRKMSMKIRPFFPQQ
T1 sequence (looked up) 3: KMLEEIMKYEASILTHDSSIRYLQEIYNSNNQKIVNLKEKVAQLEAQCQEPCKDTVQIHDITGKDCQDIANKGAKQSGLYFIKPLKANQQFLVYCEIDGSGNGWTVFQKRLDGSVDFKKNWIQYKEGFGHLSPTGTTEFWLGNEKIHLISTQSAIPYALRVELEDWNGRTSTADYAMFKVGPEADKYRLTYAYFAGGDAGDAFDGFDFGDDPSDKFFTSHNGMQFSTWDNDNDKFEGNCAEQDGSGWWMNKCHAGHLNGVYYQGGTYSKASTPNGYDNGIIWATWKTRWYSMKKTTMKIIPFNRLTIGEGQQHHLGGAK

[6] = molecular target: T1, Fibrinogen fragment D; test: SPR, fragment D immobilised, competitor soluble GPRP peptide in the analyte solution
[7] = molecular target: T1, Fibrinogen fragment D; test: SPR, fragment D immobilised, heterogeneous ligand model, site 1 (kd1)
Procedure: (§1) Upon stabilization of the baseline signal, kinetic binding experiments were run in duplicate with the peptide variants as the flow analytes. Five varying concentrations for each peptide (0.94 μM to 150 μM) were flowed at 25 μL/min for 4 min immediately followed by a 10 min dissociation phase. Between each run, the surface was regenerated with 1M sodium bromide and 50 mM sodium acetate (pH 6.0). SPR experiments were performed three times with varying peptide injection order to rule out binding trends associated with injection sequence. Peptide solutions were incubated with tris(2-carboxyethyl)phosphine (TCEP) immobilized on agarose beads (Thermo Fisher Scientific, Inc; Rockland, Ill.) to ensure reduction of any disulfide bonds between C-terminal cysteines.
(§2) To investigate the dynamic binding profile between the fibrinogen/fibrin holes and knob peptide variants, SPR was employed. Binding interactions were evaluated by flowing the knob peptides over an immobilized surface of fragment D (FIG. 8). By immobilizing fragment D as opposed to full-length fibrinogen, the kinetic binding model was simplified to a heterogeneous 2-site ligand model (i.e. one hole ‘a’ and hole ‘b’ per ligand) as opposed to a 4-site model (i.e. two of each hole ‘a’ and hole ‘b’ per ligand). The data was modeled using both a Langmuir 1:1 model and a heterogeneous ligand model to compare previously established binding affinities to a more dynamic two-site model. However, the complexity of the heterogeneous model fitted parameters for sites 1 and 2 (i.e. maximal binding response, kₐ, and kd) limits direct designation or assignment of holes ‘a’ or ‘b’ to site 1 or 2. […] All peptide SPR data was fit except for the negative control peptide, GPSPAAC (SEQ ID NO:9), where minimal binding response was observed.

[8] = molecular target: T1, Fibrinogen fragment D; test: SPR, fragment D immobilised, heterogeneous ligand model, site 2 (kd2)
Procedure: as §1, §2

[9] = molecular target: T1, Fibrinogen fragment D; test: SPR, fragment D immobilised, heterogeneous ligand model, site 1
Procedure: as §1, §2

[10] = molecular target: T1, Fibrinogen fragment D; test: SPR, heterogeneous ligand model, site 1 (KD1 = kd/ka)
Procedure: as §1, §2

[11] = molecular target: T1, Fibrinogen fragment D; test: SPR (Biacore 2000), fragment D immobilised, Langmuir 1:1 model
Procedure: as §1, §2

[12] = molecular target: T1, Fibrinogen fragment D; test: SPR, heterogeneous ligand model, site 2 (KD2 = kd/ka)
Procedure: as §1, §2

[13] = molecular target: T1, Fibrinogen fragment D; test: SPR, fragment D immobilised, heterogeneous ligand model, site 2 (ka2)
Procedure: as §1
To investigate the dynamic binding profile between the fibrinogen/fibrin holes and knob peptide variants, SPR was employed. Binding interactions were evaluated by flowing the knob peptides over an immobilized surface of fragment D (FIG. 8). By immobilizing fragment D as opposed to full-length fibrinogen, the kinetic binding model was simplified to a heterogeneous 2-site ligand model (i.e. one hole ‘a’ and hole ‘b’ per ligand) as opposed to a 4-site model (i.e. two of each hole ‘a’ and hole ‘b’ per ligand). […]

[14] = molecular target: T1, Fibrinogen fragment D; test: SPR, fragment D immobilised, heterogeneous ligand model, site 2
Procedure: as §1, §2

[15] = molecular target: T1, Fibrinogen fragment D; test: SPR, fragment D immobilised, Langmuir 1:1 model
Procedure: as §1, §2

[16] = molecular target: T1, Fibrinogen fragment D; test: SPR, fragment D immobilised, heterogeneous ligand model, site 1 (ka1)
Procedure: as §1, §2

[17] = molecular target: Human fibrinogen (human) (UniProt P02671); test: competition ELISA: soluble peptide added to fibrinogen, binding of fibrinogen to immobilised GPRP-FnIII9-10-C is measured; signal normalised to the GSPE peptide
[18] = molecular target: T1, Fibrinogen fragment D; test: SPR maximal binding response against peptide concentration, fibrinogen fragment D immobilised
Procedure: as §1
Prior to analysis, all sensorgrams were inspected for abnormalities (i.e. baseline drift, air spikes, or irregular deviations) and excluded. Reference cell responses were subtracted from corresponding active response curves. […] The resulting curves were then analyzed and fitted to the kinetic models. Kinetic modeling and simulations were performed with ClampXP software using the Langmuir 1:1 model or the heterogeneous ligand model; globally fitted parameters were determined for each kinetic data set per peptide. Equilibrium binding constants were calculated from fitted kinetic constants.

Chain of Fibrin matrix (clot) (human) (P02671 36-629 limits assumed, chain 1 of 2): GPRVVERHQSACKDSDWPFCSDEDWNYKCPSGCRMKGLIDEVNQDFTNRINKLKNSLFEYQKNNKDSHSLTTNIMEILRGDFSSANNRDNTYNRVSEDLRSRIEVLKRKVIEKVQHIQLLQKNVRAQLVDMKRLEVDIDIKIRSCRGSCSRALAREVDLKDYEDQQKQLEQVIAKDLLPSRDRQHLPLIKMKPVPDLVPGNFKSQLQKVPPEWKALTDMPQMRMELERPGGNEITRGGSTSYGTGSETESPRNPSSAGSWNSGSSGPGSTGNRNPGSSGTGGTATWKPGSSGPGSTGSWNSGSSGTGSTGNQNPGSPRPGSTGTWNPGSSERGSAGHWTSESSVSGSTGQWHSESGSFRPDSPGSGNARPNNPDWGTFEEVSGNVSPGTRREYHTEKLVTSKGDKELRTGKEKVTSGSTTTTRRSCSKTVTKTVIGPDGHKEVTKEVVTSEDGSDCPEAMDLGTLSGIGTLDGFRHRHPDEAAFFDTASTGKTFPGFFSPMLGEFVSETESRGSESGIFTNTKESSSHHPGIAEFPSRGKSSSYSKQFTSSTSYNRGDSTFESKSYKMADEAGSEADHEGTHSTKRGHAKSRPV
Chain of Fibrin matrix (clot) (human) (P02679 other isoform, or with tags, fused parts or gaps limits assumed, chain 3 of 2, further chain): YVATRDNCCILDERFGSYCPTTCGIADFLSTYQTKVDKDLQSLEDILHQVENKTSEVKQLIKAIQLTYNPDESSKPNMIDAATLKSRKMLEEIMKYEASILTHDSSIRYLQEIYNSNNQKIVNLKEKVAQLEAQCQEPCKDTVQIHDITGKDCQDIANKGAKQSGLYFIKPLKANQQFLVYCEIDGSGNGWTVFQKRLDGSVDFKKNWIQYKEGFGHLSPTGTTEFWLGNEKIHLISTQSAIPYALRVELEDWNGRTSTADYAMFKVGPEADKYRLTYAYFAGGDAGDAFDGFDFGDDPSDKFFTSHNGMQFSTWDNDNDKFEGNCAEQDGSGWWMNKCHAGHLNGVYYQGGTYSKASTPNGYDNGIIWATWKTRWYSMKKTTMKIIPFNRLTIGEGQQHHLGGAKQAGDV

- Colocalization Coefficient (Fibrin) [1]: 0.159
- Colocalization Coefficient (GPRP-Fn) [1]: 0.926
- Correlation Coefficient (R) [1]: 0.11
- Mean Intensity (GPRP-Fn) [1]: 51
- Relative Area of Colocalization [1]: 12.8%
- Colocalization Coefficient (Fibrin) [2]: 0.219
- Colocalization Coefficient (GPRP-Fn) [2]: 0.948
- Correlation Coefficient (R) [2]: 0.14
- Mean Intensity (GPRP-Fn) [2]: 52
- Relative Area of Colocalization [2]: 19.1%
- Colocalization Coefficient (Fibrin) [3]: 0.981
- Colocalization Coefficient (GPRP-Fn) [3]: 0.965
- Correlation Coefficient (R) [3]: 0.47
- Mean Intensity (GPRP-Fn) [3]: 100
- Relative Area of Colocalization [3]: 94.2%
- Colocalization Coefficient (Fibrin) [4]: 0.325
- Colocalization Coefficient (GPRP-Fn) [4]: 0.956
- Correlation Coefficient (R) [4]: 0.19
- Mean Intensity (GPRP-Fn) [4]: 55
- Relative Area of Colocalization [4]: 28.5%
Molecule: GPRP-FnIII9-10-AF633 (from UniProt P02751 1448-1631)

- Kd [5]: 125 µM
Molecule: GPRV-FnIII9-10 (from UniProt P02751 1448-1631)

- KD in the presence of a 10-molar excess of soluble GPRP peptide [6]: 43 µM
- Kd [5]: 3 µM
Molecule: GPRP-FnIII9-10 (from UniProt P02751 1448-1631)

- Colocalization Coefficient (Fibrin) [1]: 0.003
- Colocalization Coefficient (GSPE-Fn) [1]: 0.377
- Correlation Coefficient (R) [1]: -0.02
- Mean Intensity (GSPE-Fn) [1]: 38
- Relative Area of Colocalization [1]: 0.1%
- Colocalization Coefficient (Fibrin) [2]: 0.003
- Colocalization Coefficient (GSPE-Fn) [2]: 0.0413
- Correlation Coefficient (R) [2]: 0.02
- Mean Intensity (GSPE-Fn) [2]: 44
- Relative Area of Colocalization [2]: 0.1%
- Colocalization Coefficient (Fibrin) [3]: 0.01
- Colocalization Coefficient (GSPE-Fn) [3]: 0.739
- Correlation Coefficient (R) [3]: 0.04
- Mean Intensity (GSPE-Fn) [3]: 46
- Relative Area of Colocalization [3]: 0.6%
- Colocalization Coefficient (Fibrin) [4]: 0.001
- Colocalization Coefficient (GSPE-Fn) [4]: 0.521
- Correlation Coefficient (R) [4]: -0.06
- Mean Intensity (GSPE-Fn) [4]: 45
- Relative Area of Colocalization [4]: 0%
Molecule: GSPE-FnIII9-10-AF633 (from UniProt P02751 1448-1631)

- koff [7]: 0.0577 s⁻¹
- koff [8]: 0.00407 s⁻¹
- Bmax (maximal binding capacity of fragment D, site 1) [9]: 25.6 RU
- Kd [10]: 53.9 µM
- Bmax (maximal binding capacity of fragment D) [11]: 16.3 RU
- Kd [12]: 15.7 µM
- kon [13]: 260 M⁻¹ s⁻¹
- B*max (maximal binding capacity of fragment D, site 2) [14]: 10.3 RU
- koff [15]: 0.0234 s⁻¹
- kon [15]: 280 M⁻¹ s⁻¹
B1: GPRVVERC (peptide)
peptide: GPRVVERC
notes: Synthetic (GenScript); also called knob 'A' peptide

- koff [7]: 0.0587 s⁻¹
- koff [8]: 0.00296 s⁻¹
- Bmax (maximal binding capacity of fragment D, site 1) [9]: 14.6 RU
- Kd [10]: 18.2 µM
- Bmax (maximal binding capacity of fragment D) [11]: 19.2 RU
- Kd [12]: 2.93 µM
- B*max (maximal binding capacity of fragment D, site 2) [14]: 5.92 RU
- koff [15]: 0.00992 s⁻¹
- kon [15]: 1290 M⁻¹ s⁻¹
- kon [16]: 3220 M⁻¹ s⁻¹
B2: GPRPPERC (peptide)
peptide: GPRPPERC
notes: as for B1

- koff [7]: 0.0811 s⁻¹
- koff [8]: 0.00196 s⁻¹
- Bmax (maximal binding capacity of fragment D, site 1) [9]: 17.6 RU
- Kd [10]: 3.73 µM
- Bmax (maximal binding capacity of fragment D) [11]: 17.7 RU
- Kd [12]: 1.08 µM
- kon [13]: 1810 M⁻¹ s⁻¹
- B*max (maximal binding capacity of fragment D, site 2) [14]: 11.3 RU
- koff [15]: 0.00727 s⁻¹
- kon [15]: 12500 M⁻¹ s⁻¹
- kon [16]: 21700 M⁻¹ s⁻¹
B3: GPRPFPAC (peptide)
peptide: GPRPFPAC
notes: as for B1

- IC50 (read off the curve) [17]: 200 µg/mL
Molecule: GPRV [GPRV tetrapeptide]

- koff [7]: 0.0301 s⁻¹
- koff [8]: 0.001 s⁻¹
- Bmax (maximal binding capacity of fragment D, site 1) [9]: 8.36 RU
- Kd [10]: 48.5 µM
- Bmax (maximal binding capacity of fragment D) [11]: 18.9 RU
- Kd [12]: 25 µM
- B*max (maximal binding capacity of fragment D, site 2) [14]: 13.5 RU
- koff [15]: 0.0107 s⁻¹
- kon [16]: 620 M⁻¹ s⁻¹
B4: GPRVVAAC (peptide)
peptide: GPRVVAAC
notes: as for B1

- koff [7]: 0.0128 s⁻¹
- koff [8]: 0.00895 s⁻¹
- Bmax (maximal binding capacity of fragment D, site 1) [9]: 19.4 RU
- Kd [10]: 4.53 µM
- Bmax (maximal binding capacity of fragment D) [11]: 21.5 RU
- Kd [12]: 8.52 µM
- B*max (maximal binding capacity of fragment D, site 2) [14]: 5.91 RU
- koff [15]: 0.0117 s⁻¹
- kon [15]: 1140 M⁻¹ s⁻¹
- kon [16]: 2840 M⁻¹ s⁻¹
B5: GPRPAAC (peptide)
peptide: GPRPAAC
notes: Synthetic (GenScript); kept reduced with immobilised TCEP; also called gold standard GPRP mimic; knob 'A' peptide

B6: GPSPAAC (peptide)
peptide: GPSPAAC
notes: Synthetic (GenScript); negative control; also called negative control peptide
- binding result [18]: no binding (tested: just below 10^-4 M (last point))
